Test results from the array DNA melting data of Ke et al..

Experiment: melting temperature; melt of duplexes
Conditions: sodium 0.0675 M; strand 1 µM

| Substance | Tm [°C] |
| --- | --- |
| CGACGTGCCGGATGTGCTG+CAGCACATACGGCACGTCG ((((((((((.((((((((+)))))))).)))))))))) | 63.8 |
| CGACGTGCTCTATGTGCTG+CAGCACATCCTGCACGTCG ((((((((...((((((((+))))))))...)))))))) | 47.8 |
| CGACGTGCAATATGTGCTG+CAGCACATTGCGCACGTCG ((((((((...((((((((+))))))))...)))))))) | 50 |
| CGACGTGCCAAATGTGCTG+CAGCACATGCGGCACGTCG (((((((((..((((((((+))))))))..))))))))) | 57.1 |
| CGACGTGCGCGATGTGCTG+CAGCACATGTGGCACGTCG ((((((((...((((((((+))))))))...)))))))) | 51.7 |
| CGACGTGCAGCATGTGCTG+CAGCACATCTGGCACGTCG ((((((((...((((((((+))))))))...)))))))) | 49.5 |
| CGACGTGCCTGATGTGCTG+CAGCACATTTGGCACGTCG (((((((((..((((((((+))))))))..))))))))) | 55.6 |
| CGACGTGCGCAATGTGCTG+CAGCACATTTCGCACGTCG (((((((((.(((((((((+))))))))).))))))))) | 57.5 |
| CGACGTGCTGAATGTGCTG+CAGCACATTACGCACGTCG ((((((((..(((((((((+)))))))))..)))))))) | 52.7 |
| CGACGTGCATTATGTGCTG+CAGCACATGCTGCACGTCG (((((((((..((((((((+))))))))..))))))))) | 49 |
| CGACGTGCGGCATGTGCTG+CAGCACATCAAGCACGTCG ((((((((...((((((((+))))))))...)))))))) | 53.6 |
| CGACGTGCCATATGTGCTG+CAGCACATATAGCACGTCG ((((((((.((((((((((+)))))))))).)))))))) | 53.2 |
| CGACGTGCTCCATGTGCTG+CAGCACATACAGCACGTCG (((((((((..((((((((+))))))))..))))))))) | 49.6 |
| CGACGTGCGGAATGTGCTG+CAGCACATACTGCACGTCG ((((((((.(.((((((((+)))))))).).)))))))) | 54.3 |
| CGACGTGCTGTATGTGCTG+CAGCACATGAAGCACGTCG (((((((((..((((((((+))))))))..))))))))) | 54.9 |
| CGACGTGCAGCATGTGCTG+CAGCACATTGTGCACGTCG (((((((((..((((((((+))))))))..))))))))) | 44.8 |
| CGACGTGCCCCATGTGCTG+CAGCACATCCAGCACGTCG ((((((((...((((((((+))))))))...)))))))) | 47.4 |
| CGACGTGCGATATGTGCTG+CAGCACATCTTGCACGTCG ((((((((.(.((((((((+)))))))).).)))))))) | 51.2 |
| CGACGTGCCTAATGTGCTG+CAGCACATAGTGCACGTCG ((((((((...((((((((+))))))))...)))))))) | 47.2 |
| CGACGTGCTAAATGTGCTG+CAGCACATTAAGCACGTCG (((((((((.(((((((((+))))))))).))))))))) | 55.8 |
| CGACGTGCTTAATGTGCTG+CAGCACATGAGGCACGTCG ((((((((.(.((((((((+)))))))).).)))))))) | 52.7 |
| CGACGTGCCAGATGTGCTG+CAGCACATCAAGCACGTCG ((((((((..(((((((((+)))))))))..)))))))) | 53.7 |
| CGACGTGCATCATGTGCTG+CAGCACATTTCGCACGTCG ((((((((...((((((((+))))))))...)))))))) | 46.9 |
| CGACGTGCATGATGTGCTG+CAGCACATTCTGCACGTCG (((((((((..((((((((+))))))))..))))))))) | 52.9 |

| Substance | Tm [°C] |
| --- | --- |
| CGACGTGCTTGATGTGCTG+CAGCACATCTAGCACGTCG (((((((((.(((((((((+))))))))).))))))))) | 58.6 |
| CGACGTGCTCGATGTGCTG+CAGCACATAGTGCACGTCG ((((((((.(.((((((((+)))))))).).)))))))) | 49.8 |
| CGACGTGCGGAATGTGCTG+CAGCACATACGGCACGTCG ((((((((.(.((((((((+)))))))).).)))))))) | 53.3 |
| CGACGTGCAGCATGTGCTG+CAGCACATTGCGCACGTCG ((((((((...((((((((+))))))))...)))))))) | 52.5 |
| CGACGTGCGCGATGTGCTG+CAGCACATCCGGCACGTCG ((((((((..(((((((((+)))))))))..)))))))) | 55 |
| CGACGTGCCCTATGTGCTG+CAGCACATGACGCACGTCG ((((((((...((((((((+))))))))...)))))))) | 44 |
| CGACGTGCAGCATGTGCTG+CAGCACATTACGCACGTCG ((((((((...((((((((+))))))))...)))))))) | 45.1 |
| CGACGTGCACGATGTGCTG+CAGCACATCTAGCACGTCG ((((((((..(((((((((+)))))))))..)))))))) | 51.3 |
| CGACGTGCACGATGTGCTG+CAGCACATCAAGCACGTCG ((((((((..(((((((((+)))))))))..)))))))) | 51.2 |
| CGACGTGCGAAATGTGCTG+CAGCACATTTAGCACGTCG ((((((((.((((((((((+)))))))))).)))))))) | 57.9 |
| CGACGTGCCAAATGTGCTG+CAGCACATCAAGCACGTCG ((((((((...((((((((+))))))))...)))))))) | 49.3 |
| CGACGTGCGGCATGTGCTG+CAGCACATGCTGCACGTCG ((((((((.((((((((((+)))))))))).)))))))) | 62.7 |
| CGACGTGCGGCATGTGCTG+CAGCACATGGGGCACGTCG ((((((((..(((((((((+)))))))))..)))))))) | 57.6 |
| CGACGTGCCAAATGTGCTG+CAGCACATTTTGCACGTCG ((((((((.((((((((((+)))))))))).)))))))) | 55.1 |
| CGACGTGCTTCATGTGCTG+CAGCACATCAAGCACGTCG ((((((((((.((((((((+)))))))).)))))))))) | 53.3 |
| CGACGTGCCAGATGTGCTG+CAGCACATTCCGCACGTCG ((((((((...((((((((+))))))))...)))))))) | 49.6 |
| CGACGTGCGTAATGTGCTG+CAGCACATACTGCACGTCG ((((((((...((((((((+))))))))...)))))))) | 52.4 |
| CGACGTGCGCCATGTGCTG+CAGCACATTAGGCACGTCG ((((((((...((((((((+))))))))...)))))))) | 48.3 |
| CGACGTGCGGGATGTGCTG+CAGCACATACAGCACGTCG ((((((((.(.((((((((+)))))))).).)))))))) | 56.5 |
| CGACGTGCCACATGTGCTG+CAGCACATTCGGCACGTCG (((((((((..((((((((+))))))))..))))))))) | 53.4 |
| CGACGTGCAAGATGTGCTG+CAGCACATGCTGCACGTCG (((((((((..((((((((+))))))))..))))))))) | 51.1 |
| CGACGTGCGTCATGTGCTG+CAGCACATGGAGCACGTCG ((((((((..(((((((((+)))))))))..)))))))) | 58.4 |
| CGACGTGCGTGATGTGCTG+CAGCACATAGGGCACGTCG ((((((((...((((((((+))))))))...)))))))) | 50.6 |
| CGACGTGCAGTATGTGCTG+CAGCACATTGCGCACGTCG ((((((((...((((((((+))))))))...)))))))) | 49.3 |

| Substance | Tm [°C] |
| --- | --- |
| CGACGTGCACTATGTGCTG+CAGCACATTCGGCACGTCG ((((((((...((((((((+))))))))...)))))))) | 43.7 |
| CGACGTGCGCCATGTGCTG+CAGCACATACTGCACGTCG ((((((((...((((((((+))))))))...)))))))) | 48.2 |
| CGACGTGCATGATGTGCTG+CAGCACATACCGCACGTCG ((((((((...((((((((+))))))))...)))))))) | 47.5 |
| CGACGTGCACTATGTGCTG+CAGCACATACTGCACGTCG (((((((((.(((((((((+))))))))).))))))))) | 48.8 |
| CGACGTGCCTCATGTGCTG+CAGCACATTATGCACGTCG ((((((((.(.((((((((+)))))))).).)))))))) | 47.7 |
| CGACGTGCCACATGTGCTG+CAGCACATGCGGCACGTCG (((((((((.(((((((((+))))))))).))))))))) | 60.2 |
| CGACGTGCTTAATGTGCTG+CAGCACATTGCGCACGTCG ((((((((..(((((((((+)))))))))..)))))))) | 50.1 |
| CGACGTGCCACATGTGCTG+CAGCACATGGAGCACGTCG ((((((((..(((((((((+)))))))))..)))))))) | 56.1 |
| CGACGTGCCAAATGTGCTG+CAGCACATATTGCACGTCG ((((((((.(.((((((((+)))))))).).)))))))) | 48.9 |
| CGACGTGCATGATGTGCTG+CAGCACATCATGCACGTCG (((((((((((((((((((+))))))))))))))))))) | 63.6 |
| CGACGTGCAGGATGTGCTG+CAGCACATATGGCACGTCG ((((((((...((((((((+))))))))...)))))))) | 51.3 |
| CGACGTGCGGCATGTGCTG+CAGCACATTTTGCACGTCG ((((((((...((((((((+))))))))...)))))))) | 48.7 |
| CGACGTGCAGTATGTGCTG+CAGCACATAGTGCACGTCG (((((((((.(((((((((+))))))))).))))))))) | 55.1 |
| CGACGTGCCCCATGTGCTG+CAGCACATCCCGCACGTCG ((((((((...((((((((+))))))))...)))))))) | 46.2 |
| CGACGTGCTCTATGTGCTG+CAGCACATGTAGCACGTCG (((((((((..((((((((+))))))))..))))))))) | 52.3 |
| CGACGTGCGCGATGTGCTG+CAGCACATGGCGCACGTCG ((((((((((.((((((((+)))))))).)))))))))) | 62 |
| CGACGTGCATAATGTGCTG+CAGCACATGCCGCACGTCG ((((((((...((((((((+))))))))...)))))))) | 50.9 |
| CGACGTGCGAGATGTGCTG+CAGCACATATGGCACGTCG ((((((((.(.((((((((+)))))))).).)))))))) | 53.3 |
| CGACGTGCAACATGTGCTG+CAGCACATGCTGCACGTCG (((((((((.(((((((((+))))))))).))))))))) | 56.9 |
| CGACGTGCTGTATGTGCTG+CAGCACATACCGCACGTCG ((((((((.((((((((((+)))))))))).)))))))) | 55.2 |
| CGACGTGCTGAATGTGCTG+CAGCACATTGGGCACGTCG ((((((((..(((((((((+)))))))))..)))))))) | 53.8 |
| CGACGTGCTTGATGTGCTG+CAGCACATAACGCACGTCG ((((((((.(.((((((((+)))))))).).)))))))) | 50.8 |
| CGACGTGCCGTATGTGCTG+CAGCACATCAGGCACGTCG (((((((((..((((((((+))))))))..))))))))) | 57.1 |
| CGACGTGCGTAATGTGCTG+CAGCACATTGTGCACGTCG ((((((((..(((((((((+)))))))))..)))))))) | 52 |
